Assay results reported in PMC8604728.
Blank lines part the entries; values can stand above or below the substance they belong to.

Columns and labels:
[1] = molecular target: wild-type cholecystokinin A receptor (CCKAR) (UniProt P32238)
[2] = molecular target: CCKAR I296G (UniProt P32238)
[3] = molecular target: wild-type cholecystokinin A receptor (CCKAR) (UniProt P32238); remark: listed apart in the source

Substance: Gi heterotrimer of the BRET G-protein dissociation assay (from UniProt P63096 1-354; P62873 1-340; P59768 1-71) (complex)
pEC50 of CCK-8 in the BRET G-protein dissociation assay (Gβγ-Venus to GRK3ct-luciferase), cells with CCKAR and Gi (Supplementary Table 3, Receptor + Gi) [1]: 7.32

Substance: Gq heterotrimer of the BRET G-protein dissociation assay (from UniProt P50148 1-359; P62873 1-340; P59768 1-71) (complex)
pEC50 of CCK-8 in the BRET G-protein dissociation assay (Gβγ-Venus to GRK3ct-luciferase), cells with CCKAR and Gq (Supplementary Table 3, Receptor + Gq) [1]: 8.42 | pEC50 of CCK-8, Gq-coupling activity by BRET assay (Supplementary Table 4, I296G) [2]: 8.38 | pEC50 of CCK-8, Gq-coupling activity by BRET assay (Supplementary Table 4, WT) [3]: 9.14

Substance: Gs heterotrimer of the NanoBiT G-protein dissociation assay (Gαs-LgBiT, Gβ, SmBiT-Gγ) (from UniProt P63092 1-394; P62873 1-340; P59768 1-71) (complex)
pEC50 of CCK-8, Gs-coupling activity by NanoBiT G-protein dissociation assay (Gαs-LgBiT and SmBiT-Gγ in HEK 293T/17 cells; Supplementary Table 4, I296G) [2]: 10.5 | pEC50 of CCK-8, Gs-coupling activity by NanoBiT G-protein dissociation assay (Gαs-LgBiT and SmBiT-Gγ in HEK 293T/17 cells; Supplementary Table 4, WT) [3]: 10.5

Other lines, results leading:

pEC50 of CCK-8, Gi-coupling activity by NanoBiT G-protein recruitment assay (CCKAR-LgBiT and SmBiT-Gβ1 in sf9 cells; Supplementary Table 4, I296G) [2]: 6.66 | pEC50 of CCK-8, Gi-coupling activity by NanoBiT G-protein recruitment assay (CCKAR-LgBiT and SmBiT-Gβ1 in sf9 cells; Supplementary Table 4, WT) [3]: 6.81
Substance: Gi heterotrimer of the NanoBiT G-protein recruitment assay (Gαi1, SmBiT-fused human Gβ1, human Gγ2) (from UniProt P63096 1-354; P62873 1-340; P59768 1-71) (complex)

pEC50 of CCK-8 in the BRET G-protein dissociation assay (Gβγ-Venus to GRK3ct-luciferase), cells with CCKAR and Gs (Supplementary Table 3, Receptor + Gs) [1]: 7.92
Substance: Gs heterotrimer of the BRET G-protein dissociation assay (from UniProt P63092 1-394; P62873 1-340; P59768 1-71) (complex)
